Assay results: paper PMC10130748

Assays:
[1] = target: soluble recombinant integrin αIIbβ3, P08514;P05106; assay: ELISA-type binding assay (OD450); conditions: chain shown with the change; CD62P 50 µg/ml; 1 mM Mn2+; parent: est. 0.54; read off a plot
[2] = target: T1, soluble recombinant integrin αvβ3, P06756;P05106; assay: ELISA-type binding assay (OD450); conditions: chain shown with the change; CD62P 50 µg/ml; 1 mM Mn2+; parent: est. 0.55; read off a plot
T1 chain 1: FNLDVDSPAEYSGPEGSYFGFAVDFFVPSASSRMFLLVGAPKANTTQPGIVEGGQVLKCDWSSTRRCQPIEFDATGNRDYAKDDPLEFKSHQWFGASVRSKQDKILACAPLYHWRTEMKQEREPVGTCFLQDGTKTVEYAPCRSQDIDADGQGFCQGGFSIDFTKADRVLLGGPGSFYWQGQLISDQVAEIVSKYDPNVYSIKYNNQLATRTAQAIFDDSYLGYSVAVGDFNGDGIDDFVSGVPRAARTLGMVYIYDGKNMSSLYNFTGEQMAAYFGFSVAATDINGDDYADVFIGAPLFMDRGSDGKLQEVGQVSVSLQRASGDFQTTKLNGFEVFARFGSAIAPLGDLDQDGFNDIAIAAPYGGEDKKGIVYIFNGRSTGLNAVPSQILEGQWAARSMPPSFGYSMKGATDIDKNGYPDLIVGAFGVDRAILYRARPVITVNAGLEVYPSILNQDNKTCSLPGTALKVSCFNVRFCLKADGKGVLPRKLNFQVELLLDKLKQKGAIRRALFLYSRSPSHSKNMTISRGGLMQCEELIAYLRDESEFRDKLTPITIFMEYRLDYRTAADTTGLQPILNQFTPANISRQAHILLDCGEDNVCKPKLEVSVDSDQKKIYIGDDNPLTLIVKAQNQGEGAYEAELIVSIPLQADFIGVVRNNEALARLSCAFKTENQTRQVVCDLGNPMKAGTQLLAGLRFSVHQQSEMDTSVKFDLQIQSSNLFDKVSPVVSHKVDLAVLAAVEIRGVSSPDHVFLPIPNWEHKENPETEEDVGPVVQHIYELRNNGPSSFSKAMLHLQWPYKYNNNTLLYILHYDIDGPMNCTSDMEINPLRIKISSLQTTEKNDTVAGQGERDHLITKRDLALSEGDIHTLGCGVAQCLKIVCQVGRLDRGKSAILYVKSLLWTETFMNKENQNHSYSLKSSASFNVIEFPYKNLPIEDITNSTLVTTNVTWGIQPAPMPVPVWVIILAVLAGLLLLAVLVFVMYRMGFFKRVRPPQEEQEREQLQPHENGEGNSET
T1 chain 2: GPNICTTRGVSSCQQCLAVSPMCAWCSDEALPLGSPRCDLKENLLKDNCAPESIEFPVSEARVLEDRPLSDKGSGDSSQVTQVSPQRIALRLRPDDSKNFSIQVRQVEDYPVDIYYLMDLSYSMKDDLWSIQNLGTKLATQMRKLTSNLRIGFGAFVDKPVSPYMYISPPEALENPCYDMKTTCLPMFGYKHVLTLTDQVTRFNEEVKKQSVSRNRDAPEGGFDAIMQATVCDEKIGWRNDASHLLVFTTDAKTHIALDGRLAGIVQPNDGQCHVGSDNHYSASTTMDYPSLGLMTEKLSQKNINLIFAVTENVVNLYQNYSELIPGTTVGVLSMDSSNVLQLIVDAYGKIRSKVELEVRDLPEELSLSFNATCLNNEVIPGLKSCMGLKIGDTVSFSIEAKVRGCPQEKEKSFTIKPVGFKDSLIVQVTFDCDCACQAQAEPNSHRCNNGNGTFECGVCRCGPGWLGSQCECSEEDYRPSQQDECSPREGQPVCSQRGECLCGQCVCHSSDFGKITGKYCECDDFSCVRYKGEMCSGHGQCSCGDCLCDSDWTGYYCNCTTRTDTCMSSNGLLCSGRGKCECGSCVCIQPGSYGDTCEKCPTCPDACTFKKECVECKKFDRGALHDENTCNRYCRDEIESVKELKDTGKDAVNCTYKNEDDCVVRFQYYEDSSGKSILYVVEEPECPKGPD

Binder	response [1] [OD450]	response [2] [OD450]
CD62P (P-selectin) lectin domain (residues 1–117), wild type K58E (protein) WTYHYSTKAYSWNISRKYCQNRYTDLVAIQNKNEIDYLNKVLPYYSSYYWIGIRKNNETWTWVGTKKALTNEAENWADNEPNNKRNNEDCVEIYIKSPSAPGKWNDEHCLKKKHALC	0.27	0.31
CD62P (P-selectin) lectin domain (residues 1–117), wild type K66E; K67E (protein) WTYHYSTKAYSWNISRKYCQNRYTDLVAIQNKNEIDYLNKVLPYYSSYYWIGIRKNNKTWTWVGTEEALTNEAENWADNEPNNKRNNEDCVEIYIKSPSAPGKWNDEHCLKKKHALC	0.3	0.35
CD62P (P-selectin) lectin domain (residues 1–117), wild type E88D (protein) WTYHYSTKAYSWNISRKYCQNRYTDLVAIQNKNEIDYLNKVLPYYSSYYWIGIRKNNKTWTWVGTKKALTNEAENWADNEPNNKRNNDDCVEIYIKSPSAPGKWNDEHCLKKKHALC	0.76	0.8

Now from value to binder:

response [1] [OD450]	response [2] [OD450]	Binder
1.3	1.2	CD62P (P-selectin) lectin domain (residues 1–117), wild type R54E; K55E (protein) WTYHYSTKAYSWNISRKYCQNRYTDLVAIQNKNEIDYLNKVLPYYSSYYWIGIEENNKTWTWVGTKKALTNEAENWADNEPNNKRNNEDCVEIYIKSPSAPGKWNDEHCLKKKHALC
0.12	0.14	CD62P (P-selectin) lectin domain (residues 1–117), wild type R16E; K17E (protein) WTYHYSTKAYSWNISEEYCQNRYTDLVAIQNKNEIDYLNKVLPYYSSYYWIGIRKNNKTWTWVGTKKALTNEAENWADNEPNNKRNNEDCVEIYIKSPSAPGKWNDEHCLKKKHALC
0.19	0.24	CD62P (P-selectin) lectin domain (residues 1–117), wild type K84E; R85E (protein) WTYHYSTKAYSWNISRKYCQNRYTDLVAIQNKNEIDYLNKVLPYYSSYYWIGIRKNNKTWTWVGTKKALTNEAENWADNEPNNEENNEDCVEIYIKSPSAPGKWNDEHCLKKKHALC
